Biological target: J-base Binding Protein 1 (JBP1) (Leishmania tarentolae (assumed; species …, UniProt Q9U6M1)
Test: SPR

Chain of J-base Binding Protein 1 (JBP1) (Leishmania tarentolae (Q9U6M1 whole entry): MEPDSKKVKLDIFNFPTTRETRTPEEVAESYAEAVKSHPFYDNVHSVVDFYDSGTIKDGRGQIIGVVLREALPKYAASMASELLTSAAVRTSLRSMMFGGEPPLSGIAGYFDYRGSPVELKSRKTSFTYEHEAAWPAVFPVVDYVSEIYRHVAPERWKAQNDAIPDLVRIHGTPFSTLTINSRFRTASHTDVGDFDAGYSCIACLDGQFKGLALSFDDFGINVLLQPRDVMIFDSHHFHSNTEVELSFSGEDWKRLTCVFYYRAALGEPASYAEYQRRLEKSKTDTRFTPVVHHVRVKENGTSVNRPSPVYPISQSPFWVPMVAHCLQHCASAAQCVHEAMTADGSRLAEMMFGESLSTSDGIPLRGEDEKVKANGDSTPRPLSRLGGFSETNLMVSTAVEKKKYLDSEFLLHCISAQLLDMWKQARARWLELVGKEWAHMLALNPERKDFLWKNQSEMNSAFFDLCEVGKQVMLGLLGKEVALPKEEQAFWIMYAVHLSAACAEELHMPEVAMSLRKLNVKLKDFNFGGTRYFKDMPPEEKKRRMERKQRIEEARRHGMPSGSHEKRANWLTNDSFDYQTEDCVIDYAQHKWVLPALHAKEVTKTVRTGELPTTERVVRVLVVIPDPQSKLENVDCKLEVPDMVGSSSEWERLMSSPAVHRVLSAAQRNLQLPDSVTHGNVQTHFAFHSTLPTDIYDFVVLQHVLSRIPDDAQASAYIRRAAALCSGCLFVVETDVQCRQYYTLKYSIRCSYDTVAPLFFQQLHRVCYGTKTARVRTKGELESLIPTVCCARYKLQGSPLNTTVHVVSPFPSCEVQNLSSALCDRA

B1: nanobody-6 (Nb6) (VHH)
VHH: QVQLVESGGGLVQAGGSLRLSCAASGSFFSINDMGWYRQAPGKQRELVAVISSGGSTNYADSVEGRSTISSDNAKNTVYLQLSSLKPEDTAVYYCNANVRLREYRTTSYHYWGQGTQVTVSS
  Kd: 30 nM

From publication doi:10.1101/340778 (bioRxiv, 2018)
